Experimental data from IntAct's records for PubMed 10846174.

B1: Apoptosis regulator ced-9 (Caenorhabditis elegans), P41958 (parent)
chain: MTRCTADNSLTNPAYRRRTMATGEMKEFLGIKGTEPTDFGINSDAQDLPSPSRQASTRRMSIGESIDGKINDWEEPRLDIEGFVVDYFTHRIRQNGMEWFGAPGLPCGVQPEHEMMRVMGTIFEKKHAENFETFCEQLLAVPRISFSLYQDVVRTVGNAQTDQCPMSYGRLIGLISFGGFVAAKMMESVELQGQVRNLFVYTSLFIKTRIRNNWKEHNRSWDDFMTLGKQMKEDYERAEAEKVGRRKQNRRWSMIGAGVTAGAIGIVGVVVCGRMMFSLK
partner: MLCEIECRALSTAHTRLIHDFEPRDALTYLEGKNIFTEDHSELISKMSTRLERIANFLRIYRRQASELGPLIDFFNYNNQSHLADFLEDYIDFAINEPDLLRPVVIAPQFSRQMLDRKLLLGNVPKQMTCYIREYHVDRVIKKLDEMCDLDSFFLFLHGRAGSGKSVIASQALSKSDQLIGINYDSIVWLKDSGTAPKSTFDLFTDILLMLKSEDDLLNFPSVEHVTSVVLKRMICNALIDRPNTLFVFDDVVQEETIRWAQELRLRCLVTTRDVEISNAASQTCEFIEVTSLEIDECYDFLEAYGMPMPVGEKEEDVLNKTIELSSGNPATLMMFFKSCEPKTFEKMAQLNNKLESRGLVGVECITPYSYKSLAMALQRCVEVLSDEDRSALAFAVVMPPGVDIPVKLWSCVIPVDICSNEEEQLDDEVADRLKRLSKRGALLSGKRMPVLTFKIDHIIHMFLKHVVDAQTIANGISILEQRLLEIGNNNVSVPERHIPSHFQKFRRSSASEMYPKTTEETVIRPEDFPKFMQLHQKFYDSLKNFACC
B2: Apoptosis regulator ced-9 (Caenorhabditis elegans), P41958 (parent)
chain: B1 chain
partner: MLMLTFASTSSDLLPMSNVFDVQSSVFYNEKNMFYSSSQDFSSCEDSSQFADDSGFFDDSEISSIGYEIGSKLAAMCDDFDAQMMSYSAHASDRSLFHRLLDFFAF

Variants of: B1
Details: with ced4_caeel ced-4, P30429

Variant | effect of a mutation on the interaction
G169E | with no effect

Variants of: B2
Details: with egl1_caeel egl-1, O61667

Variant | effect of a mutation on the interaction
G169E | with no effect

Variants of: B2
Details: with egl1_caeel egl-1, O61667
Remark: another data set of the same source

Variant | effect of a mutation on the interaction
G169E | decreasing interaction strength
